Test: soluble on expression in E. coli; label from the status in PepcDB or PDB records

| Sequence | soluble on expression in E. coli |
| --- | --- |
| MKDFWTWERLSFHMVLAYNDDRSFLINTGMPLDLTLRNQEMKKFAGDRAIFRSEDSIEMLRKAGFTPDDIDYVALTPVQDYTIGRLNEFRKSKIFIFRDGWIKDIAAPAYAYFHNRDLFIPKNIFDFVYGEGWKNIIFYDGETELVPGIRAIPVGCHHRSSVAFAINAKDGTYVFTDASFKAENVRNRIPIGIAENIYECLSAYEKIEKIGKLLPAYDPAIDDLYIKLEHHHHHH | soluble |
| MDPLFLLLPYISSVGKEGKFQSVKQMVMDEDYPGCSRLLQCKQGLDSLHHVADEKEVNDQKYHKYNLEKTLEWLKKKVQRTVNALKKGNISVGGGVKSSTFVRVKHEDASEEDYLRYAHGLISEYISEDLSKDLLKHLELPEISSPKEAEPPSKKRKLSDKPVEAGEDYTKFNSADFARKPPKKMTAAQKSLAKADKTGMKSLASFFSPKVKQEKN | not soluble |
| MSGLHILAFGAHADDVEIGMAGTIAKYTKQGYEVGICDLTEADLSSNGTIELRKEEAKVAARIMGVKTRLNLAMPDRGLYMKEEYIREIVKVIRTYKPKLVFAPYYEDRHPDHANCAKLVEEAIFSAGIRKYMPELSPHRVESFYNYMINGFHKPNFCIDISEYLSIKVEALEAYESQFSTGSDGVKTPLTEGYVETVIAREKMFGKEVGVLYAEGFMSKKPVLLHADLLGGCKLGHHHHHH | soluble |
| MFSKTVVVLLMVVPAISLAQPASPLVLKKSHGAFCHLCEDLIKDGKEAGDVALDVWLDEEIGSRCKDFGVLASECFKELKVAEHDIWEAIDQEIPEDKTCKEAKLC | not soluble |
| MGSDKIHHHHHHMKILVGSPVSLEEFETIDLFISWLDVIPDNARFSIVGTSKFFIIGKNGREWKKGYEFGIVDADINIFVVGGDLALYPEVFYIAKENGAKLVVGFCEIQNFIDFNFVKAKFWAHTQETSLASIVLLNFLGKVHNNIYFPLEKTKNQTGVVAEGVAPVFLELKKNFFSSEEAEDV | not soluble |
| MSDSAVVAAAVEPKVPKAKAAKAAKPTKVAKAKAPVAHPPYINMIKEAIKQLKDRKGASKQAILKFISQNYKLGDNVIQINAHLRQALKRGVTSKALVQAAGSGANGRFRVPEKAAAAKKPAAAKKPAAAKKPAAAKKATGEKKAKKPAAAKPKKAATGDKKVKKAKSPKKVAKPAAKKVAKSPAKKAAPKKIAKPAAKKAAKPAAKA | soluble |
| SLSPRRLRLLLVDENPTARAVIGRRLSHRHYDVTVVEDGFAAQKTLIIQPSDIILIDMDLQLLPAIGTMEKIRAAHPAGHACIVMIGGASDTPKMIAALDAGADDHIVKPFDFDMLDARLRRVHARAERVNLLSRQYAELDARIARRAMELGETRETLRQVELDRARLMASVDHLQAEVARLSAREG | soluble |
| MGSDKIHHHHHHMTRNANKNNKECEKCWIFDLNQFKMITNSILEENTLVLEINQNYEVSVLMDYDVFLENGILTFKDFVNDNSKSAQVLTGSLKTGILNKMSQSISEGLLNKTTNRRTYYITEPTPLIGHTAFGLIDRGTNVIQVRGLSGCNINCPFCSVDEGIHSKSRKNDYYVDKDYLVSEYEKIADFKGYKKLEAHLDGQGEPSLYYPLPDLVQNLNEINSKNNGIVSIQTNGVHLTEKLIDDLEVAGLHRINLSINAMDEKFSKGLSGSKNYDIEKIMKIAEYIKNSKIHLLIAPLLLPNYNDEEFKKVLDFAVELEQKNPQNTINPITNKKNPIVGPQLCLTYQFGRKIPKMRVWDFPKFYNLLDVYHKEYLKDGINVDLEVPLHGFFGSHGRKRLPCPFKLNETISVTVLMDGRVNGEVIGASKNRVIQIIDCKTDINKLIGKRVKVKVLRVKDNVIVGSMVK | not soluble |
| MLPETTTLQPLPSVTTIMNEPPARSPMEDYYLFNQFQYNQNPYVYPPQPVYYNTWQDASTHHFDPFQSYQIPSPYEQPIQSSMCTTPLQPLEDSRIIFDESLTKNENEQKSFVEQDSSYESSGNRFGSQKGKKIAKVIRDACCSHCSTTTTTLWRKNDEGNLECNACNLYYRHNKVKRPLSLCKQKPTTRKRRQAKKE | not soluble |
| MVDMAVTPVALLEASHLHYHVQQQALINDVSLHIASGEMVAIIGPNGAGKSTLLRLLTGYLSPSHGECHLLGQNLNSWQPKALARTRAVMRQYSELAFPFSVSEVIQMGRAPYGGSQDRQALQQVMAQTDCLALAQRDYRVLSGGEQQRVQLARVLAQLWQPQPTPRWLFLDEPTSALDLYHQQHTLRLLRQLTRQEPLAVCCVLHDLNLAALYADRIMLLAQGKLVACGTPEEVLNAETLTQWYQADLGVSRHPESALPQIYLRQ | not soluble |
| MGSDKIHHHHHHQSMKKEEVPQNISAFPLGKENTGFKQYFTGESWLAPLTGNKDLNVPMSNVTFEPGCRNNWHSHTGGQILIAVGGVGYYQERGKAARRLLPGDVVEIAPDIEHWHGAAPDSWFSHLAIGCNPQTNKNIWLEQVDDQQYAEATKDNGGTGLSATDPELDAIFGNFTKEVQQYGNLDTKTRLMVTLASNIASQAQTEYRMMLESALNAGITPIEIKEILYQAVAYAGMAKVMDFVGITNEALLAHGVRLPLEGQAVVSAETRFDKGLALQKSIFGERIDQMHKNAPENQKHIQRYLSANCFGDYQTRGGLDVKTRELLTFSILVSLGGCESQVKGHIQGNVNVGNNKDTLLAVVTQLLPYIGYPRTLNAIACLNEVIPEK | not soluble |
| MTGTLLYTKNSALDRSEESGDLSPAKEFSIGPGFLKYVLRVRNEIAAAEYDMSVPTGFEADANCDYCFEQDTCMVVSGRLDQESKAGQLGEPLPEPERAYFERLYRAIEEERREVHAEYRKLWEQSAAERADDDRALVDLDPLGREPLDGGRWALSARRTSDAVSKIREGDRVLASDGHPTQGTAELATVRHLDDEIVVVADEPFELRRIDVYPSELGVDRQLTALHDAVLRGDPDRKDVLFGRREPSFVGDHRPIIDNNESQNEAVNRALAAEDFALIHGPPGTGKTYTLAQTVQALVARGDRVLLSAFTNRAVDNAIEALEAQGFTDVLRWGSESGVRDDMQSYRFDRTGDPRERAAALRDAQVVAATTAACGSRALKQQQFDVAVIDEAGQLTEPGTFLATNRADRFVLVGDHEQLPPVVRAENDLQTSLFEQLIDDYPDAAVMLDRQYRMSQRIQYFASREFYDGQLRPANAEVASQRLADLDGVDVSTLPSALRDAVSFVDPGGSADGNTNPTEADRVADIVSAYLDAGVDPDDIGVIAPFRAQVAELSRRIDEVTVDTVDRFQGSSKEVIIVSFVATGELSSPIFEDYRRVNVALTRAKKALVLVGDATALRSVPFYERMLEWAGLEHHHHHH | not soluble |
| MIIAREKRRNNIAEYVLYMWQIEDLIRANELDMQRLRATVIAQYRQDTETTAEIDRWYAELVEMMLTEGVREQGHINIVRIAIMQMEEIHSRLMADPKEMIYQGLYYQVLPAIVQLRAKSAGSNTGEIETCLTAIYGLLTLRLQKKEVSEETLASIKQMSTLLSVLSEKFAAREEGTDEALL | not soluble |
| MGSDKIHHHHHHMLESNPPKSLYRETAGGIGDYCALAGAQRARVAIVGGGFTGLSTALHLAEAGDDVAVLEAQQPGWGASGRNGGQVNPGLKYDPDTIEAMFGPELGPRMIDFSYGAPDFTFGLIKRLSIACDARQNGTIRAAIRPKPQAAVRTTAAQCQRRGMPVSMVDAQAMATRTGTGRYIAGMFDARGGDLHPLKYTIGLAAAARNASARIFGGSEVLSLKREAGRWVLKTANGSVSAEKVLVATNGYTGALWPGLEQSLVPVFSAIAATEPLAPAAAAQILPDRPVLYEAGNITVYYRIDAQNRLLMGGRGPMKPIGDASAIRYLTDYALRLWPALAGVRWTHGWNGRVAITKDHLLHIHEPEDGVLICLGYNGRGVAMASAMGAALAQRLQGRETSPFPMPISPLKPIRFHRFWPLGVKAAILSGRLKDRFGL | not soluble |
| MNHPAHHGPTVTPKRRHPDSTGAAPVGIVIATRNRRASLAVTVRNLLALPERPDVLVVDNASTDDTRAMLARDFPQVRVLPLPYNRGALARTHGVRALDTPYVAFSDDDSWWAPGALGAAARHFDDHPRLGLLSARTLVGPGDAADPLNDLLADSPLGTATDLPGTQVLGFLGCAAVARRTAYLDAGGYHPLLFFGGEETLLAYDLAARGWGVTHCPDVIAHHHPHPRPRTGRPAVVRRNALLTAWLRRPLPHALARTRALAADARRDPHARHALRETLTRLPAALRARRPLPPHVERAARLLDGADGPDGPGGAVSLEHHHHHH | soluble |
| MAHHHHHHMPADSTATAREVPIDTVALQLDAEMAQMRLQRQRYSTLCTRKNRLQAHVDELNAQGKDLTFQRQREQTRSAQELEHGLASSSTSLPEISRTPGDQAQLPAEVLGGALQELTACITERRELLQHLRDGSHDCLKLRDARFAKCSLSTVAGLDDHVASQSGIHASDTTAVIAGRGEAPTRCAARNPVSDSAVTSAAPASGLRHVEEGLAKAHQALCRGEEKALAEREYLLLLLQQCAQPQQLQQGRGRLACRQMAD | not soluble |
| MSLPLIIPENIPAYELLKEHAFIMGLRRAKHQDIRPQEILIVNLMPKKIETENQILSLLANSPLQVNITLLATTSYVGKNTPFTHLEKFYKGLEEVKKHKFDGAIVTGAPVEQMDFEKVAYWEELLEIFDFLKQNVTSSMYICWGAMAALKYFYGVDKISLDKKIFGVYKHDKVSPDLLLTNLDEKVLMPHSRHSSMDEEQILALQKQGKLKILLRNKKIGSALLRDEKNIFILGHLEYFKETLHQEYVRDNFIQKAKNYYDKKGNIKYNWRSNANTIFANWLNYDVYQSTPFVLEGHHHHHH | soluble |
| MAHHHHHHMASVDTQWAIKSILQLGHHHLRHGAETTSSSSSCLVRPTSPPFRSASKAVQVTAMPRLMRASCDPSYVILLAKRPSGIAGVSLRPGNRVPWTGLPAAASSLVSAPCSKKTRLLASYLQRRGFATIRPVATDTHSSPSQFRPVQRSMPLLLHTSHLIGWKLNDASPAFPVYAHTLAELQQLRSSDVAALKPQHCLIANEYCEWDNWREVLGEPGWDLFSADEDAVERLLQDGLAISALEEEAGLYPVEVL | not soluble |
| MGSDKIHHHHHHMNIHVKECGDLEAPLLVFLHGGGVSGWMWSNQVDYFHHYHCIVPDLPHHGLSGRETSFTILNSAEALIRLIEKKAQGRDVIVIGFSLGAQILLQMISINPRLITKAIVNSALVRPIPIPEKLLELSVKSTFPLIKSRWFSRLQAKTLYIDDDLFETYYRESCQMTQDSLTQILKENVSFRLPENVHEISTRILTTVGAKEKRIMKTSATMITHAHPNSTGIIIPSVGHGIPLAKPDQFNQLVDQWLKEERLPHDVGLIEK | not soluble |
| GSSGSSGYQPTYNPTLPYKRPIPGGLSVGMSVYIQGMAKENMRRFHVNFAVGQDDGADVAFHFNPRFDGWDKVVFNTMQSGQWGKEEKKKSMPFQKGKHFELVFMVMPEHYKVVVNGNSFYEYGHRLPVQMVTHLQVDGDLELQSINFLGGQPAAAPY | soluble |
| MKSSSPISSLTTIISTGTNLGSGTDDDIYFGIHLNNGQKKEWLLDKETYNDFENGATDEYYLYINDMDFLPTMVDKVWVRKNSTGSFAGNWFFKALRIDANGNDVLSVSPNEWITDSNSQAEFNSDWSSVTNLTDPEFLEHHHHHH | soluble |
| MSLENRFDLRCYVVTGAGSVDEVVHTASAAARGGAGVVQVRSKPISPEAMRELASKVALEVARCSPTTRVLIDDHLHVASSLMREGLPIHGVHLGQDDMSVLEARELLGPEAIIGLTTGTLELVAAANELSDVLDYIGAGPFRKTPTKDSGRPPIGLAGYPPLVELSKVPIVAIGDVTPADVRALSATGVAGVAMVRAFSESDDPQQVAENVVANFELGRLSEGHHHHHH | soluble |
| MEHWYCTNMVGVPVGLIGSTAFNRCLRRITIHGTRETHPGLFRLLAACEYPATASEVFEHYMELEFGLAPGAHEPTQARYPTSYLDLLRGWGVESDCPKAAVLKGWVESRFGLVPTFHKQRLGLFPSSAWATYLQEKTDVRFHNNCIFQQFDLLYEYCQWSIRRFKTPGPRFVRLWRGTNDVEQQLVEGDARQRLCTVRLNNLVSFSDSKERAEEFGDWVLETEVPTVKLLFFPGLLQRQVLGYEGEFLVIGGNYKVRAYHGWFLEHHHHHH | soluble |

From the DeepSol protein solubility set
